This is an account of results in publication PMC7855068 (Nature structural & molecular biology, 2020).

First the molecules themselves.
B2: Arp9 (natural protein)
chain: MAPFRQDSILIIYPRSQTTLVQFGLNEETFTVPELEIPTQIYRTTRQDGSYTYHSTNKDNKAELIKPIQNGEIIDISAFTQFLRLIFVSILSDRANKNQDAFEAELSNIPLLLITHHSWSQSDLEIITQYVFESLEINNLIQLPASLAATYSMISLQNCCIIDVGTHHTDIIPIVDYAQLDHLVSSIPMGGQSINDSLKKLLPQWDDDQIESLKKSPIFEVLSDDAKKLSSFDFGNENEDEDEGTLNVAEIITSGRDTREVLEERERGQKVKNVKNSDLEFNTFWDEKGNEIKVGKQRFQGCNNLIKNISNRVGLTLDNIDDINKAKAVWENIIIVGGTTSISGFKEALLGQLLKDHLIIEPEEEKSKREEEAKSVLPAATKKKSKFMTNSTAFVPTIEYVQCPTVIKLAKYPDYFPEWKKSGYSEIIFLGAQIVSKQIFTHPKDTFYITREKYNMKGPAALWDVQF
B3: Sth1 (AA 301–1097), truncated ATPase subunit of RSC (domain or fragment)
chain: VRLAEELERQQLLEKRKKERNLHLQKINSIIDFIKERQSEQWSRQERCFQFGRLGASLHNQMEKDEQKRIERTAKQRLAALKSNDEEAYLKLLDQTKDTRITQLLRQTNSFLDSLSEAVRAQQNEAKILHGEEVQPITDEEREKTDYYEVAHRIKEKIDKQPSILVGGTLKEYQLRGLEWMVSLYNNHLNGILADEMGLGKTIQSISLITYLYEVKKDIGPFLVIVPLSTITNWTLEFEKWAPSLNTIIYKGTPNQRHSLQHQIRVGNFDVLLTTYEYIIKDKSLLSKHDWAHMIIDEGHRMKNAQSKLSFTISHYYRTRNRLILTGTPLQNNLPELWALLNFVLPKIFNSAKTFEDWFNTPFANTGTQEKLELTEEETLLIIRRLHKVLRPFLLRRLKKEVEKDLPDKVEKVIKCKLSGLQQQLYQQMLKHNALFVGAGTEGATKGGIKGLNNKIMQLRKICNHPFVFDEVEGVVNPSRGNSDLLFRVAGKFELLDRVLPKFKASGHRVLMFFQMTQVMDIMEDFLRMKDLKYMRLDGSTKTEERTEMLNAFNAPDSDYFCFLLSTRAGGLGLNLQTADTVIIFDTDWNPHQDLQAQDRAHRIGQKNEVRILRLITTDSVEEVILERAMQKLDIDGKVIQAGKFDNKSTAEEQEAFLRRLIESETNRDDDDKAELDDDELNDTLARSADEKILFDKIDKERMNQERADAKAQGLRVPPPRLIQLDELPKVFREDIEEHFKKEDSEPLGRIRQKKRVYYDDGLTEEQFLEAVEDDNMSLEDAIKKRREARERRRLRQ
B4: Arp7 (natural protein)
chain: MTLNRKCVVIHNGSHRTVAGFSNVELPQCIIPSSYIKRTDEGGEAEFIFGTYNMIDAAAEKRNGDEVYTLVDSQGLPYNWDALEMQWRYLYDTQLKVSPEELPLVITMPATNGKPDMAILERYYELAFDKLNVPVFQIVIEPLAIALSMGKSSAFVIDIGASGCNVTPIIDGIVVKNAVVRSKFGGDFLDFQVHERLAPLIKEENDMENMADEQKRSTDVWYEASTWIQQFKSTMLQVSEKDLFELERYYKEQADIYAKQQEQLKQMDQQLQYTALTGSPNNPLVQKKNFLFKPLNKTLTLDLKECYQFAEYLFKPQLISDKFSPEDGLGPLMAKSVKKAGASINSMKANTSTNPNGLGTSHINTNVGDNNSTASSSNISPEQVYSLLLTNVIITGSTSLIEGMEQRIIKELSIRFPQYKLTTFANQVMMDRKIQGWLGALTMANLPSWSLGKWYSKEDYETLKRDRKQSQATNATN

In the assay “Arp7” the target is B4. Description: cryo-EM structure.
The assay “Arp9” deals with B2. Description: cryo-EM structure.
The target in assay [1] is B3. Description: cryo-EM structure.
In assay [2] the target is T1, Arp7/Arp9/Rtt102 heterotrimer (S. cerevisiae, UniProt Q12406;Q05123;P53330).
T1 sequence 1: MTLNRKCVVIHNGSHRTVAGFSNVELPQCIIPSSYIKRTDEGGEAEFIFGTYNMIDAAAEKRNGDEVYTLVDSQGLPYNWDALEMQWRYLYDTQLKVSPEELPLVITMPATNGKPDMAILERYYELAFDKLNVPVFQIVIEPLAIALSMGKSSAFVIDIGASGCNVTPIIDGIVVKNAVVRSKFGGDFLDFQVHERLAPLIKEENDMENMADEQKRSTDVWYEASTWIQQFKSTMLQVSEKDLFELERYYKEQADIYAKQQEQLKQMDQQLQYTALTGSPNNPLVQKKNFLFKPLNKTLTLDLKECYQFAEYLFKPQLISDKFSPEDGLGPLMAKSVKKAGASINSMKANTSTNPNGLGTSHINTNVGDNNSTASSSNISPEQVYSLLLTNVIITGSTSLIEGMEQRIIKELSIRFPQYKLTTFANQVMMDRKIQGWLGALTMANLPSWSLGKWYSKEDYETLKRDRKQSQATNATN
T1 sequence 2: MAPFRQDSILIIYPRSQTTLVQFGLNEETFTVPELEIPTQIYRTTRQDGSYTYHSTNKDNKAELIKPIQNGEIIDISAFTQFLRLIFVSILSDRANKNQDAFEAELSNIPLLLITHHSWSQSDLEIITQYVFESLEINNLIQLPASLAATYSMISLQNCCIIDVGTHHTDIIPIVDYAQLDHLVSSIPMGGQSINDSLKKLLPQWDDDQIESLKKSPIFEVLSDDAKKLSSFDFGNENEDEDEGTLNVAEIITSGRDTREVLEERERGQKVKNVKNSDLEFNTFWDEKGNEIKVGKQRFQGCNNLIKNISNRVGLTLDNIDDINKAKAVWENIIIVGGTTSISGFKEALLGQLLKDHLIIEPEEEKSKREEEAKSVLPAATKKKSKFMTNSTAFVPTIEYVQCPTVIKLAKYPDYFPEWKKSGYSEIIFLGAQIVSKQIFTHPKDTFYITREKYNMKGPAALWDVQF
T1 sequence 3: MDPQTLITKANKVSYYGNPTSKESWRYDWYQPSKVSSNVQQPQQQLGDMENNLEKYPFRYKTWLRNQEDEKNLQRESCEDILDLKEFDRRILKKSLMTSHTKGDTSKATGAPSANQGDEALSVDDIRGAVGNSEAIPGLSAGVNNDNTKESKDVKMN
Description: cryo-EM structure.

For assay [3], the target named is T1, Arp7/Arp9/Rtt102 heterotrimer. Description: circular dichroism. In general terms: CD spectra are sensitive to the conformation of chiral molecules.

B1: Rtt102 (natural protein)
chain: MDPQTLITKANKVSYYGNPTSKESWRYDWYQPSKVSSNVQQPQQQLGDMENNLEKYPFRYKTWLRNQEDEKNLQRESCEDILDLKEFDRRILKKSLMTSHTKGDTSKATGAPSANQGDEALSVDDIRGAVGNSEAIPGLSAGVNNDNTKESKDVKMN
B1: the binding result with Arp7 and with Arp9 was “binds” each time.

B2: the binding result (in assay [1]; in the assay with Arp7) was “binds” in each case.

For the molecule B3, the binding result in assay [2] was “binds”.

As for B4, in assay [1], the binding result is “binds”.

B5: HSA peptide (Sth1 residues 316–377) (peptide)
peptide: RKKERNLHLQKINSIIDFIKERQSEQWSRQERCFQFGRLGASLHNQMEKDEQKRIERTAKQR
Turning to B5, the binding result in assay [3] is “binds”.
